Entries after “also recorded” stand apart in the source; their conditions may differ. No end group written: not given here.
Columns and labels:
[1] = molecular target: HLA-A2402 (Homo sapiens, UniProt P04439, D101N/D140Y/D185E/E176V/E190D/F33S/G103R/G107R/I119L/I121M/I306V/K335N/L105A/L180Q/L300P/N151K/N90K/Q86E/Q94H/R106L/R138H/R89G/T104I/T345S/V100E/W191G/Y123F); test: HLA-A24 peptide binding assay of or7c1-derived peptides; conditions: T2A24 cells, fluorescence of HLA-A24 antibody
Procedure: Cell line T2A24 for which HLA-A2402 had been gene-transferred to peptide transporter-deficient T2 cells was used in an assay, and experiment was carried out in the same way as in Experimental Example 16. In this Experimental Example, SL-8 was used as a negative control, and survivin-2B (SEQ ID No: 72) was used as a positive control.
The peptides below were prepared in the same way as in Experimental Example 26, and a binding assay was carried out.

[2] = system: T2A24 cells pulsed with peptide; test: Cr51 cytotoxicity assay: SOX2 peptide-induced CTLs against peptide-pulsed T2A24; type: cell-based, human; conditions: Cr51 release, 4 hours
Procedure: 50 mL of peripheral blood from HLA-A24-positive lung cancer patients who gave informed consent and HLA-A24-positive healthy subjects was centrifuged in a Ficoll-Conray density gradient, and peripheral blood mononuclear cells (PBMC) were separated and collected. Subsequently, lymphocytes of PBMC were separated into CD8-positive lymphocytes and CD8-negative lymphocytes using CD8 MACS beads.
In a 96 well plate, 200000 cells/well of CD8-negative lymphocytes and the above-mentioned HLA-A24 binding SOX2 peptide were mixed, and the mixture was allowed to stand at room temperature for 2 hours, and then subjected to a degree of 100 Gy radiation treatment. […] The peptide-specific reactivity of the induced CTLs was evaluated by a cytotoxicity assay or an ELISPOT assay.
Cr^51 was added to T2A24 cells, the cells were cultured in RPMI medium at 37° C. for 1 hour, radiolabeled, and washed with RPMI medium 4 times. […] Supernatant was then collected, and the gamma-ray dose was measured using a gamma counter.
The dose when only RPMI medium and peptide-pulsed T2A24 were cultured was defined as spontaneous release (SPR), the dose when cell lysate (2% NP40) and peptide-pulsed T2A24 were cultured was defined as maximum release (MXR), and cellular cytotoxicity was calculated as (measured value−SPR)/(MXR−SPR)×100.

[3] = system: T2A24 pulsed with peptide; test: 51Cr release assay with CTLs and or7c1 peptide-pulsed T2A24; type: cell-based, human; conditions: T2A24 pulsed with 5 μg/mL peptide, E/T ratios of 20 and 6
Procedure: PBMC was separated from whole blood (heparin added) sampled from a test subject using Lymphoprep (Nycomed). After PBMC was cultured at 37° C. for 24 hours, an experiment was carried out using non-adherent cells. In order to obtain CD8-positive cells from the non-adherent cells, CD8-positive and -negative cells were separated using a magnetic cell separation system (Miltenyi Biotech). For CD8-negative cells, 100 U/mL IL-2 and 1 μg/mL PHA-P were added to AIM-V medium (Life Technologies) to give PHA-blast. The CD8-positive cells were cultured in AIM-V medium at 37° C. and stimulated with ⅕ the amount of PHA-blast three times every 7 days (0th day, 7th day, 14th day). From the 8th day, 50 U/mL of IL-2 was added to the medium, and thereafter every 3 to 4 days the medium was exchanged, and 50 U/mL of IL-2 was added. The cells were subjected as CTLs to ELISPOT on the 21st day and a ^51Cr release assay on the 28th day.
In an assay for measuring cellular cytotoxicity, cells were labeled with radioactive ^51Cr, and cellular cytotoxicity by CTLs was measured. CTLs were used as effector cells, and T2A24, K562, Sw480, and Sw480 constitutively expressing or7c1 were used as target cells. […] Kill %=(measured release−spontaneous release)×100/(maximum release−spontaneous release)

binding to HLA-A2402 [1]	Substance	further results
binding to HLA-A2402 was observed	FYGTGFGVYL (peptide fragment of OR7C1) [251(10)]	
binding to HLA-A2402 was observed	MYTMVTPML (peptide fragment of OR7C1) [277(9)]	

Further lines, the substance ahead of its results:

Substance	binding to HLA-A2402 [1]	further results
HYTViMNPQL (HYTVIMNPQL; not fully specified (residue 5); printed as HYTViMNPQL) [131(10)]	binding to HLA-A2402 was observed	
KYRPRRKTKTL [SOX2_109 peptide, KYRPRRKTKTL]		cellular cytotoxicity of CTLs against peptide-pulsed T2A24 [2]: strong radiation was detected; also recorded: extremely high level of cytotoxicity
MYLVTFTGNL (peptide fragment of OR7C1) [34(10)]	binding to HLA-A2402 was observed	
RYLRDQQLLGI [HIV-derived peptide, reference compound]		cellular cytotoxicity of CTLs against peptide-pulsed T2A24 [2]: hardly any radiation due to damaged cells was detected
TYAGCLSQIF [93(10), TYAGCLSQIF]		cellular cytotoxicity (kill %) [3]: higher cellular cytotoxicity
